From patent US20060165682A1 (Janssen / Centocor, published 2006)

Columns and labels:
Experiment in all cases: epitope map assay, OD on overlapping 10-mer peptides
EFRHDSGYEV = biological target: T1, EFRHDSGYEV
T1 construct: Aβ 3-12
T1 peptide: EFRHDSGYEV

VFFAEDVGSN = biological target: T2, VFFAEDVGSN
T2 construct: Aβ 18-27
T2 peptide: VFFAEDVGSN

IIGLMVGGVV = biological target: T3, IIGLMVGGVV
T3 construct: Aβ 31-40
T3 peptide: IIGLMVGGVV

EVHHQKLVFF = biological target: T4, EVHHQKLVFF
T4 construct: Aβ 11-20
T4 peptide: EVHHQKLVFF

AIIGLMVGGV = biological target: T5, AIIGLMVGGV
T5 construct: Aβ 30-39
T5 peptide: AIIGLMVGGV

DSGYEVHHQK = biological target: T6, DSGYEVHHQK
T6 construct: Aβ 7-16
T6 peptide: DSGYEVHHQK

HDSGYEVHHQ = biological target: T7, HDSGYEVHHQ
T7 construct: Aβ 6-15
T7 peptide: HDSGYEVHHQ

SNKGAIIGLM = biological target: T8, SNKGAIIGLM
T8 construct: Aβ 26-35
T8 peptide: SNKGAIIGLM

SGYEVHHQKL = biological target: T9, SGYEVHHQKL
T9 construct: Aβ 8-17
T9 peptide: SGYEVHHQKL

FRHDSGYEVH = biological target: T10, FRHDSGYEVH
T10 construct: Aβ 4-13
T10 peptide: FRHDSGYEVH

IGLMVGGVVI = biological target: T11, IGLMVGGVVI
T11 construct: Aβ 32-41
T11 peptide: IGLMVGGVVI

NKGAIIGLMV = biological target: T12, NKGAIIGLMV
T12 construct: Aβ 27-36
T12 peptide: NKGAIIGLMV

FFAEDVGSNK = biological target: T13, FFAEDVGSNK
T13 construct: Aβ 19-28
T13 peptide: FFAEDVGSNK

DAEFRHDSGY = biological target: T14, DAEFRHDSGY
T14 construct: Aβ 1-10
T14 peptide: DAEFRHDSGY

HQKLVFFAED = biological target: T15, HQKLVFFAED
T15 construct: Aβ 14-23
T15 peptide: HQKLVFFAED

EEISEVKMDA = biological target: T16, EEISEVKMDA
T16 construct: APP flank + Aβ 1-2
T16 peptide: EEISEVKMDA

DVGSNKGAII = biological target: T17, DVGSNKGAII
T17 construct: Aβ 23-32
T17 peptide: DVGSNKGAII

AEFRHDSGYE = biological target: T18, AEFRHDSGYE
T18 construct: Aβ 2-11
T18 peptide: AEFRHDSGYE

EDVGSNKGAI = biological target: T19, EDVGSNKGAI
T19 construct: Aβ 22-31
T19 peptide: EDVGSNKGAI

LVFFAEDVGS = biological target: T20, LVFFAEDVGS
T20 construct: Aβ 17-26
T20 peptide: LVFFAEDVGS

MDAEFRHDSG = biological target: T21, MDAEFRHDSG
T21 construct: APP flank + Aβ 1-9
T21 peptide: MDAEFRHDSG

RHDSGYEVHH = biological target: T22, RHDSGYEVHH
T22 construct: Aβ 5-14
T22 peptide: RHDSGYEVHH

ISEVKMDAEF = biological target: T23, ISEVKMDAEF
T23 construct: APP flank + Aβ 1-4
T23 peptide: ISEVKMDAEF

VGSNKGAIIG = biological target: T24, VGSNKGAIIG
T24 construct: Aβ 24-33; this label stands at two neighbouring bars
T24 peptide: VGSNKGAIIG

QKLVFFAEDV = biological target: T25, QKLVFFAEDV
T25 construct: Aβ 15-24
T25 peptide: QKLVFFAEDV

GLMVGGVVIA = biological target: T26, GLMVGGVVIA
T26 construct: Aβ 33-42
T26 peptide: GLMVGGVVIA

FAEDVGSNKG = biological target: T27, FAEDVGSNKG
T27 construct: Aβ 20-29
T27 peptide: FAEDVGSNKG

EISEVKMDAE = biological target: T28, EISEVKMDAE
T28 construct: APP flank + Aβ 1-3
T28 peptide: EISEVKMDAE

HHQKLVFFAE = biological target: T29, HHQKLVFFAE
T29 construct: Aβ 13-22
T29 peptide: HHQKLVFFAE

VKMDAEFRHD = biological target: T30, VKMDAEFRHD
T30 construct: APP flank + Aβ 1-7
T30 peptide: VKMDAEFRHD

KGAIIGLMVG = biological target: T31, KGAIIGLMVG
T31 construct: Aβ 28-37
T31 peptide: KGAIIGLMVG

GYEVHHQKLV = biological target: T32, GYEVHHQKLV
T32 construct: Aβ 9-18
T32 peptide: GYEVHHQKLV

KLVFFAEDVG = biological target: T33, KLVFFAEDVG
T33 construct: Aβ 16-25
T33 peptide: KLVFFAEDVG

YEVHHQKLVF = biological target: T34, YEVHHQKLVF
T34 construct: Aβ 10-19
T34 peptide: YEVHHQKLVF

KMDAEFRHDS = biological target: T35, KMDAEFRHDS
T35 construct: APP flank + Aβ 1-8
T35 peptide: KMDAEFRHDS

MVGGVVIATV = biological target: T36, MVGGVVIATV
T36 construct: Aβ 35-43 + one further APP residue
T36 peptide: MVGGVVIATV

AEDVGSNKGA = biological target: T37, AEDVGSNKGA
T37 construct: Aβ 21-30
T37 peptide: AEDVGSNKGA

LMVGGVVIAT = biological target: T38, LMVGGVVIAT
T38 construct: Aβ 34-43
T38 peptide: LMVGGVVIAT

EVKMDAEFRH = biological target: T39, EVKMDAEFRH
T39 construct: APP flank + Aβ 1-6
T39 peptide: EVKMDAEFRH

GSNKGAIIGL = biological target: T40, GSNKGAIIGL
T40 construct: Aβ 25-34
T40 peptide: GSNKGAIIGL

GAIIGLMVGG = biological target: T41, GAIIGLMVGG
T41 construct: Aβ 29-38
T41 peptide: GAIIGLMVGG

SEVKMDAEFR = biological target: T42, SEVKMDAEFR
T42 construct: APP flank + Aβ 1-5
T42 peptide: SEVKMDAEFR

B1: mouse 15C11 antibody (antibody, V domains shown)
VH: EVKLVESGGGLVQPGGSLKLSCAASGFTFSRYSMSWVRQTPEKRLELVAKISNSGDNTYYPDTLKGRFTISRDNAQNTLYLQMSSLKSEDTAMYYCASGDYWGQGTTLTVSS
VL: DVVMTQTPLSLPVSLGDQASISCRSSQSLVHSDGNTYLHWYLQKPGQSPKLLIYKVSNRFSGVPDRFSGSGSGTDFTLKISRVEAEDLGVYFCSQSTHVWTFGGGTKLEIK
notes: Mouse monoclonal antibody from a hybridoma; The claims number the mature chains 1-111 and 1-112; also called mouse antibody 15C11
EFRHDSGYEV
  binding result: no binding
VFFAEDVGSN
  binding result: binds
IIGLMVGGVV
  binding result: no binding
EVHHQKLVFF
  binding result: no binding
AIIGLMVGGV
  binding result: no binding
DSGYEVHHQK
  binding result: no binding
HDSGYEVHHQ
  binding result: no binding
SNKGAIIGLM
  binding result: no binding
SGYEVHHQKL
  binding result: no binding
FRHDSGYEVH
  binding result: no binding
IGLMVGGVVI
  binding result: no binding
NKGAIIGLMV
  binding result: no binding
FFAEDVGSNK
  binding result: binds
DAEFRHDSGY
  binding result: no binding
HQKLVFFAED
  binding result: binds
EEISEVKMDA
  binding result: no binding
DVGSNKGAII
  binding result: no binding
AEFRHDSGYE
  binding result: no binding
EDVGSNKGAI
  binding result: no binding
LVFFAEDVGS
  binding result: binds
MDAEFRHDSG
  binding result: no binding
RHDSGYEVHH
  binding result: no binding
ISEVKMDAEF
  binding result: no binding
VGSNKGAIIG
  binding result: no binding
QKLVFFAEDV
  binding result: binds
GLMVGGVVIA
  binding result: no binding
FAEDVGSNKG
  binding result: no binding
EISEVKMDAE
  binding result: no binding
HHQKLVFFAE
  binding result: binds
VKMDAEFRHD
  binding result: no binding
KGAIIGLMVG
  binding result: no binding
GYEVHHQKLV
  binding result: no binding
KLVFFAEDVG
  binding result: binds
YEVHHQKLVF
  binding result: no binding
KMDAEFRHDS
  binding result: no binding
MVGGVVIATV
  binding result: no binding
AEDVGSNKGA
  binding result: no binding
LMVGGVVIAT
  binding result: no binding
EVKMDAEFRH
  binding result: no binding
GSNKGAIIGL
  binding result: no binding
GAIIGLMVGG
  binding result: no binding
SEVKMDAEFR
  binding result: no binding
